Target: GST-tagged βI spectrin N-terminal fragment, residues 1 to 301 (UniProt P11277)
Assay: pull-down

Sequence of UniProt P11277 (P11277 1-301): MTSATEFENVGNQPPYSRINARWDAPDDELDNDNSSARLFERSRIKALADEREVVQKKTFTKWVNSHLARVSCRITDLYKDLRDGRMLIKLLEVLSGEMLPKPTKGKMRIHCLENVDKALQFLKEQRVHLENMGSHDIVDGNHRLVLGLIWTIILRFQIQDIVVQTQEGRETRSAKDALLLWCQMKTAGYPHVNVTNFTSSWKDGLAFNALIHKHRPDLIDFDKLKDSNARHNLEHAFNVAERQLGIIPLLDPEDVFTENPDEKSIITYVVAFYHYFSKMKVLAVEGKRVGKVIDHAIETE

reduction of binding against the unphosphorylated protein [%]	Substance
30	His-tagged 4.1R-S312A, phosphorylated in vitro by the catalytic subunit of PKC (natural protein)
30	His-tagged 4.1R-S331A, phosphorylated in vitro by the catalytic subunit of PKC (natural protein)

— PMC4409870
